These results are taken from publication PMC10421103, “Efficiency Assessment between Entrapment and Covalent Bond Immobilization of Mutant β-Xylosidase onto Chitosan Support” (Polymers, 2023).

Broadly, the Km is the substrate concentration at which the rate is half of its maximum. As a reminder, the Vmax is the top rate of the reaction or transport when substrate is in excess.

Substrate in the data set: O=[N+]([O-])c1ccc(O[C@@H]2OC[C@@H](O)[C@H](O)[C@H]2O)cc1
The experiment in a line: purified protein. The following applies: free enzyme, partially purified, 200 mM citrate-phosphate-glycine buffer pH 6.5, 50 °C, 0.22–2.00 mM substrate. Format: biochemical, Geobacillus stearothermophilus.

B1: XynB2^Y509E (Geobacillus stearothermophilus; Y509E) (protein)
chain: MATNLFFNAHHSPVGAFASFTLGFPGKSGGLDLELARPPRQNVFIGVESPHEPGLYHILPFAETAGEDESKRYDIENPDPNPQKPNILIPFAKERIEREFRVATDTWKAGDLTLTIYSPVKAVPDPETASEEELKLALVPAVIVEMTIDNTNGTRTRRAFFGFEGTDPYTSMRRIDDTCPQLRGVGQGRILGIASKDEGVRSALHFSMEDILTATLEENWTFGLGKVGALIADVPAGEKKTYQFAVCFYRGGCVTAGMDASYFYTRFFHNIEEVGLYALEQAEVLKEQAFRSNELIEKEWLSDDQKFMMAHAIRSYYGNTQLLEHEGKPIWVVNEGEYRMMNTFDLTVDQLFFELKMNPWTVKNVLDFYVERYSYEDRVRFPGDETEYPGGISFTHDMGVANTFSRPHYSSYELYGISGCFSHMTHEQLVNWVLCAAVYIEQTKDWAWRDRRLTILEQCLESMVRRDHPDPEKRNGVMGLDSTRTMGGAEITTYDSLDVSLGQARNNLELAGKCWAAYVALEKLFRDVGKEELAALAREQAEKCAATIVSHVTEDGYIPAVMGEGNDSKIIPAIEGLVFPYFTNCHEALREDGRFGDYIRALRQHLQYVLREGICLFPDGGWKISSTSNNSWLSKIYLCQFIARRILGWEWDEQGKRADAAHVAWLTHPTLSIWSWSDQIIAGEISGSKYYPRGVTSILWLEEGE
notes: recombinant in E. coli C43 from plasmid pJAVI100 (xynB2 with Y509E); partially purified by heat treatment 45 °C and dialysis; GH52
Consider B1, for which the Michaelis constant (Km) came to 900 ± 100 µM and the maximal velocity (Vmax) was determined as 0.0011 µmol/min.
